Here are results for 19 sequences from the supplement of paper PMC9170038.

In data set [1] the test system is MS2 coat protein. Description: apparent KD of MS2 coat protein, switch OFF state (with FMN for OFF switches, without FMN for ON switches); designed switch direction (-1 OFF switch, 1 ON switch): 1; higher = weaker reporter binding. As to conditions: FMN input: 0 or 200 uM; Eterna round: R93 (includes R88 designs). The essentials:
(§1)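 Designed RNA switches were transcribed on-chip from Illumina sequencing clusters. They were then titrated with SNAP-549-labelled MS2 coat protein (twofold steps, 0.7 or 1.5 nM to 3 µM; 0.8–1.5 h to 10–20 min per step) in 100 mM Tris-HCl pH 7.5, 80 mM KCl, 4 mM MgCl2, without or with constant ligand. Apparent KD is the per-design median of normalised cluster binding-curve fits.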

Data set [2] concerns MS2 coat protein. In words: apparent KD of MS2 coat protein, switch ON state; designed switch direction (-1 OFF switch, 1 ON switch): 1; higher = weaker reporter binding. Particulars: FMN input: 0 or 200 uM; Eterna round: R93 (includes R88 designs). The essentials:
as §1

As for “CGGAAGGAGAGAGAGGAUAUCCAAAGGAAAACAUGAGGAUCACCCAUGUAGAAGGUAGGAAAUUGGGAGAAGGCUCAAGAGAUAG [salish99-ss2-124]”, the “apparent KD of MS2 coat protein” value was 39.1 nM in data set [1] and 20.6 nM in data set [2].

For “CUUUCCGCGCUAUAGGAUAUGAAUGAACCUACAUGAGGAUCACCCAUGUCGAACUCGGUCCAAAAUCAGAAGGAUGGCGAGGCGC [Oratis]”, the “apparent KD of MS2 coat protein” value came out at 178 nM in data set [1] and 119 nM in data set [2].

For the sequence “GAAAAACAUGAGGAUCACCCAUGUAAGAUAAACACAGGAUAUGCGAAAAUAAAUAAAGAAGCAGAAGGGUGAAGAA [Mat - Same State 1 - Tesla mod - 73]”, the “apparent KD of MS2 coat protein” value in data set [1] was determined as 26.5 nM; in data set [2] it was 11.1 nM.

Turning to “GAAAAACAUGAGGAUCACCCAUGUAGAAAUAUGGGAGGAUAUACAAAGACGAAAGUCAAAGUAGAAGGCCUAAAGA [Mat - Same State 1 - Eli mod - 34]”, the “apparent KD of MS2 coat protein” value in data set [1] is 91.1 nM; in data set [2], 15.5 nM.

For the sequence “GAAAAACAUGAGGAUCACCCAUGUGAAAACUUGGGAGGAUAUACAAAGACGAAAGUCGAAGUAGAAGGCCUAUAAG [Same State 1.4l (Mat - Mod of Eli - )]”, the “apparent KD of MS2 coat protein” value came to 85.9 nM in data set [1] and 21.1 nM in data set [2].

For the sequence “GAAAAACAUGAGGAUCACCCAUGUGAGAAUAUGGGAGGAUAUACGAAGACGAGAGUCAAAGUAGAAGGCCUAAAAG [Mat - Same State 1 - Eli mod - 30]”, the results for the “apparent KD of MS2 coat protein” value in data set [1] and in data set [2] were 82.9 nM and 27.2 nM, respectively.

As to “GAAAAACAUGAGGAUCACCCAUGUGGAAAUAUGGGAGGAUAUACAAAGACGGAAGUCAAAGUAGAAGGCCUAAAAG [Mat - Same State 1 - Eli mod - D10]”, the “apparent KD of MS2 coat protein” value in data set [1] was found to be 119 nM; in data set [2], 26.5 nM.

As to “GAAAAACAUGAGGAUCACCCAUGUGUAAAUAUGGGAGGAUAUACAAAGACGUAAGUCAAAGUAGAAGGCCUAAAAG [Mat - Same State 1 - Eli mod - D12]”, the “apparent KD of MS2 coat protein” value stood at 95.1 nM in data set [1] and 29.9 nM in data set [2].

Regarding “GAAAUACAUGAGGAUCACCCAUGUUAGGUGGGUCAAGGAUAUUGAGAUAAAUAAAAAUCUCGAGAAGGUGAAUAAA [JR_SS001_Sub202]”, the “apparent KD of MS2 coat protein” value stood at 199 nM in data set [1] and 87.7 nM in data set [2].

Take “GACGAACAUGAGGAUCACCCAUGUAAAAACGUACAAGGAUAUGUGUGGAAACCGUACUAUACAGAAGGUGUCUGUC [SS1 - 96]”: the results for the “apparent KD of MS2 coat protein” value in data set [1] and in data set [2] were 38.6 nM and 37.3 nM, respectively.

Take “GAGAGACAUGAGGAUCACCCAUGUAGGAUUAUGGGAGGAUAUACAAAGACGAGAGUCAGAGUAGAAGGCCUAGGAA [salish99-ss1-137(!)]”: the “apparent KD of MS2 coat protein” value in data set [1] turned out to be 74.4 nM; in data set [2], 24.2 nM.

On to “GAGAGGAAGAGAGAGGAUAUCCAAAGGAAAACAUGAGGAUCACCCAUGUAAAAGGUAGGAAAUUGGGAGAAGGCUCAAGAGAGAG [salish99-ss2-063]”, for which the “apparent KD of MS2 coat protein” value in data set [1] worked out at 29.6 nM; in data set [2], 29.1 nM.

As for “GAGAUACAUGAGGAUCACCCAUGUUGAUACAUGGGAGGAUAUACAAGGUCGAAAGAUAAGGUAGAAGGCCUAAAAG [LROPPY Same State 1 - v04_deltaG=3.5]”, the “apparent KD of MS2 coat protein” value amounted to 15.7 nM in data set [1] and 47.1 nM in data set [2].

Take “GAGGACAUAGUACAGGAUAUAUGAAUAGUCACAUGAGGAUCACCCAUGUCCAUUUAUAUGGGCACAUAGAAGGGUGGUAGUUAUC [SameState2 Malc#27]”: the “apparent KD of MS2 coat protein” value in data set [1] is 347 nM; in data set [2], 24.6 nM.

As to “GAGGACAUAGUACAGGAUAUAUGAAUAGUCACAUGAGGAUCACCCAUGUGCAUUUAUAUGCGCACAUAGAAGGGUGGUAGUUAUC [SameState2 Malc#28]”, the “apparent KD of MS2 coat protein” value in data set [1] came to 67 nM; in data set [2], 155 nM.

For the sequence “GAGGACCUAGGAUAGGAUAUGUGAAUAAUUACAUGAGGAUCACCCAUGUCCAUUUAUAUGGGAACAUAGAAGGGUUCUGGUUAUC [SameState2 Malc#38]”, the “apparent KD of MS2 coat protein” value in data set [1] was found to be 71.9 nM; in data set [2], 51.8 nM.

For the sequence “GAUAAACAUGAGGAUCACCCAUGUAGAUAUAUGGGAGGAUAUACAAAGACGAUAGUCAAAGUAGAAGGCCUAAUAG [77%, Mat - Mod of Eli - With 4 more U's]”, the figures for the “apparent KD of MS2 coat protein” value in data set [1] and in data set [2] were 84 nM and 29.6 nM, respectively.

With “GCUUAUCCAUGCUAGGAUAUCGGCGAGAAAACAUGAGGAUCACCCAUGUGCUUGCAUAAAAGUCACGAGAAGGAGCCUGAUGGAC [Quanletira]”, the “apparent KD of MS2 coat protein” value in data set [1] turned out to be 17.3 nM; in data set [2], 19.7 nM.

For the sequence “GGAAGACAUGAGGAUCACCCAUGUGGGAUUAUGGGAGGAUAUACAAAGACGAGAGUCAGAGUAGAAGGCCUAGGAG [salish99-ss1-122(!)]”, the “apparent KD of MS2 coat protein” value in data set [1] is 107 nM; in data set [2], 61.1 nM.
